Source: US20140234872

Experiments:
[1] = test system: His-GIV-CT Y1798F, phosphorylated in vitro by recombinant EGFR kinase
[2] = test system: His-GIV-CT (aa 1660-1870), wild-type, phosphorylated in vitro by recombinant EGFR kinase
[3] = test system: His-GIV-CT Y1764F, phosphorylated in vitro by recombinant EGFR kinase
His-GIV-CT Y1764F, phosphorylated in vitro by recombinant EGFR kinase, sequence (chain, as listed by the source Y1764F): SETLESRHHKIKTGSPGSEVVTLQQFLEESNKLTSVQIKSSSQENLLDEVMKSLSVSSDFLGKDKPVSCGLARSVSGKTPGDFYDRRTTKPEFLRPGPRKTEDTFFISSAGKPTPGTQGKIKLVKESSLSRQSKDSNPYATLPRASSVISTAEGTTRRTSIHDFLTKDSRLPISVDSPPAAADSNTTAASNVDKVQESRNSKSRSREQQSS

His-GIV-CT (aa 1660-1870), wild-type, phosphorylated in vitro by recombinant EGFR kinase, sequence (chain, as listed by the source): as the sequence (chain, as listed by the source Y1764F) above, with F105Y counted along it
His-GIV-CT Y1798F, phosphorylated in vitro by recombinant EGFR kinase, sequence (chain, as listed by the source Y1798F): as the sequence (chain, as listed by the source Y1764F) above, with F105Y, Y139F counted along it

| Substance | in vitro phosphatase assay: residual tyrosine phosphorylation of His-GIV-CT mutants [1] | in vitro phosphatase assay: residual tyrosine phosphorylation of His-GIV-CT [2] | in vitro phosphatase assay: residual tyrosine phosphorylation of His-GIV-CT mutants [3] |
| --- | --- | --- | --- |
| His-SHP-1 (human, recombinant) | SHP-1 efficiently dephosphorylated both mutants | SHP-1 efficiently dephosphorylated GIV in a dose-dependent manner | SHP-1 efficiently dephosphorylated both mutants |
| GST-SHP-1 (full length, wild-type, human) |  | SHP-1 WT, but not SHP-1 CS dephosphorylated tyrosine-phosphorylated His-GIV-CT in a dose-dependent manner |  |
| GST-SHP-1 C453S (catalytically inactive) |  | SHP-1 WT, but not SHP-1 CS dephosphorylated tyrosine-phosphorylated His-GIV-CT in a dose-dependent manner |  |
